US20240199757A1 (UNIVERSITY OF CHICAGO, published 2024)

T1: Full-length cynomolgus NT5E (recombinant) (cynomolgus, UniProt P21589 27-549 (human entry))
T1 construct: also called cNT5E; cyno NT5E
T1 chain: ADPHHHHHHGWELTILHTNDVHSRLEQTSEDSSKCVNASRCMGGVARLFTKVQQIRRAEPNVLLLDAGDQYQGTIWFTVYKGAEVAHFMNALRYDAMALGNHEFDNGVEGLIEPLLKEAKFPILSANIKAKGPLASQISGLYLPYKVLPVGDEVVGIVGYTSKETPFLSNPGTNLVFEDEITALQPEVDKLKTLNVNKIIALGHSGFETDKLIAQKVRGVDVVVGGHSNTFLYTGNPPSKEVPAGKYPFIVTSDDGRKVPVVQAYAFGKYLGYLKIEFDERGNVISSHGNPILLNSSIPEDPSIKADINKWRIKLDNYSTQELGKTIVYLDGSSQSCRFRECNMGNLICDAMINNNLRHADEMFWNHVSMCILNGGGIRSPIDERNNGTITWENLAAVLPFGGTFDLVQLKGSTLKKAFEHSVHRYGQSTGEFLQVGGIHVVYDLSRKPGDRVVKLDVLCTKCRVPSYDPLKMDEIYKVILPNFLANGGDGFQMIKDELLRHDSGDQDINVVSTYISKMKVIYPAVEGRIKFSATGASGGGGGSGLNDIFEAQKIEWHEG

T2: human NT5E expressed on MDA-MB-231 cells (human, UniProt P21589 27-549)
T2 construct: whole, on cells; also called NT5E-expressing MDA-MB-231 cells; CD73
T2 sequence (looked up): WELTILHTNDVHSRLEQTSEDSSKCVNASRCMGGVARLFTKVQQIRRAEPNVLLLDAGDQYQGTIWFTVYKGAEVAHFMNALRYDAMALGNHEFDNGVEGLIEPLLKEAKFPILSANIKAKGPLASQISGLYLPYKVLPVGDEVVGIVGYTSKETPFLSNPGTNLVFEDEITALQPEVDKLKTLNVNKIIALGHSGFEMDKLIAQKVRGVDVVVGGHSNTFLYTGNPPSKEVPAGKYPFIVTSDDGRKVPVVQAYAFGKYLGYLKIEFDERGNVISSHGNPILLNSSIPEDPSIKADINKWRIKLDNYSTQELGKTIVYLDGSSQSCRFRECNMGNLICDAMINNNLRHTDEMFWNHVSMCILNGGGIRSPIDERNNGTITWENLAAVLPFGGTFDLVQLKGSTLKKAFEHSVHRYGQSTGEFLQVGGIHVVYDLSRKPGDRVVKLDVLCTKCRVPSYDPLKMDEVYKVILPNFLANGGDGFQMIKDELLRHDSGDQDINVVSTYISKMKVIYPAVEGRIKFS


Columns and labels:
[1] = target: hNT5EDF (substrate binding knock-out variant of hNT5E) (human); test: DSF thermal shift, 1.5-fold molar excess of Fab, no ATP (hNT5EDF alone 44° C.)
Method: With 1 mM ATP alone (red dashed line), the TM shifts from one transition at 49° C. to two transitions at TM 59° C. and 64° C. […] Thermal shift assays of substrate binding knock-out variants hNT5EDF (FIG. 2B) and hNT5EFF (FIG. 2C) show no change in thermal stability with the addition of ATP.
Thermal stability of samples was analyzed by differential scanning fluorimetry (DSF) using a real-time PCR instrument (Bio-Rad CFX384). Protein samples were mixed with 4× Sypro Orange at a final 4 μM concentration. For target/Fab complexes, 1.5-fold molar excess of Fab was used. All reactions were performed in triplicates in a 384-well plate. Thermal melting curves were monitored from 25° C. to 95° C. in steps of 0.5° C./30 s. Wavelengths of 490 and 575 nm were used for excitation and emission, respectively. The melting temperatures were inferred from the first derivative of the melting curves from the mean of triplicate runs using CFX software provided by the manufacturer.

[2] = target: T1, Full-length cynomolgus NT5E …; test: SPR, His-captured NT5E, no ATP
Method: All SPR experiments were performed at 25° C. using MASS-1 (Bruker) instrument. hNT5E, mNT5E and cNT5E were immobilized onto a nitrilotriacetic acid (NTA) sensor chip via His-tag. For kinetic experiments, after ligand immobilization, 2-fold serial dilutions of the Fabs were injected. After double-reference subtraction data were analyzed with BiaEvaluation (GE Healthcare) or Sierra Analyser (Bruker) software. The experiments were carried in buffers in presence and absence of 1 mM ATP to compare the kinetic parameters of the Fabs binding to closed and open form of NT5E.

[3] = target: T2, human NT5E expressed on MDA-MB-231 cells; test: flow cytometry on MDA-MB-231 cells, PBS without ATP; -ATP (PBS alone), MDA-MB-231 cells
Method: Flow cytometry analysis of antibodies binding to human NT5E expressed on MDA-MB-231 cells in ATP-free condition (black) or in 1 mM ATP (red). Top panel: (left) 1780 Fab and (right) 1780 IgG titrations. […] Binding was measured at the indicated range of antibody concentrations and is expressed as mean±st. dev of median fluorescence intensity (MFI) of 1-2 replicates. Data were analyzed using OriginLab, and EC₅₀ values are shown next to the fitted curves.
Human MDA-MB-231 cells and murine 4T1 cells were grown to 90% confluency, detached with 5 mM EDTA for 15 min at 37° C. and then resuspended in 37° C. lx PBS (#10010031, Gibco) supplemented with 1% FBS and 1OpM ZnCl2. Separate working buffers (WB) of PBS and 1% FBS with or without fixed nucleotide concentrations were used throughout all washing steps to maintain constant condition. In 96-well plates (#3799, Costar), 0.2×10⁶ cells were added per well. The plates were spun at 500×g for 5 min and the supernatant was removed. Anti-NT5E antibodies were diluted to the desired concentration in 100 μL WB, added to the cells and the plates were incubated for 20 min at 37° C. Plates were spun and cells were washed twice with WB then spun a second time. […] Samples were analyzed by flow cytometry using CytoFLEX (Beckman Coulter) and mean fluorescence intensity (MFI) data was extracted using FlowJo software. […]

| Binder | TM of NT5E in the presence of the Fab [1] [° C.] | Kd [2] [µM] | koff [2] [s⁻¹] | EC50 [3] [µM] |
| --- | --- | --- | --- | --- |
| 1789 Fab (Fab, V domains shown) VH: EVQLVESGGGLVQPGGSLRLSCAASGFNVSYSSIHWVRQAPGKGLEWVASISSSSGYTYYADSVKGRFTISADTSKNTAYLQMNSLRAEDTAVYYCARNYWGWYPFYYFAFDYWGQGTLVTV VL: DIQMTQSPSSLSASVGDRVTITCRASQSVSSAVAWYQQKPGKAPKLLIYSASSLYSGVPSRFSGSRSGTDFTLTISSLQPEDFATYYCQQGWDYPITFGQGTKVEIKR | 48 | 0.15 | 0.02 |  |
| 1789 IgG (antibody, V domains shown) VH: EVQLVESGGGLVQPGGSLRLSCAASGFNVSYSSIHWVRQAPGKGLEWVASISSSSGYTYYADSVKGRFTISADTSKNTAYLQMNSLRAEDTAVYYCARNYWGWYPFYYFAFDYWGQGTLVTVSS VL: DIQMTQSPSSLSASVGDRVTITCRASQSVSSAVAWYQQKPGKAPKLLIYSASSLYSGVPSRFSGSRSGTDFTLTISSLQPEDFATYYCQQGWDYPITFGQGTKVEIKR |  |  |  | 0.124 |
